Source: publication PMC13125535, “Reprogramming of bacterial virulence by lysine acetylation” (Nature Communications, 2026)

B1: SnCE1 C256A AcK209 (domain or fragment)
chain: SLTSKAICRYSLSSVESIQPKTQVKAIEPKGEKDRFLIDERNWLNNQHLGLYSLFLQEKYGPEVFFPFGGWTYVFPGLTDRFFKEDSYHILDVRAKRIKSFLDYKSITYPLFIGGNHWGLLFIDREKRTVEYYDSKINYGNYEEGLQGIKDVAAKFTKYDPGEKPYTYLEKIKKKLQPDGYQAGPWALYFLEHRLENPEVDFNQLDLNEAQNMIAKYRFAVRDKLLELQKNGNTLYC
modifications: acetyl-lysine at 209
notes: SnCE1, Simkania negevensis, UniProt F8L4W9
B2: SnCE1_(104-310) C256A (non-acetylated) (domain or fragment)
chain: GEKDRFLIDERNWLNNQHLGLYSLFLQEKYGPEVFFPFGGWTYVFPGLTDRFFKEDSYHILDVRAKRIKSFLDYKSITYPLFIGGNHWGLLFIDREKRTVEYYDSKINYGNYEEGLQGIKDVAAKFTKYDPGEKPYTYLEKIKKKLQPDGYQAGPWALYFLEHRLENPEVDFNQLDLNEAQNMIAKYRFAVRDKLLELQKNGNTLYC
notes: SnCE1, Simkania negevensis, UniProt F8L4W9, residues 104-310; Not acetylated; no proteolytic processing seen for this truncated protein; not shown: GST, N-terminal, cleaved

Target: the molecule itself
Assay: SEC; analytical SEC on a calibrated Superdex 200 10/300 GL column; 25 mM Tris-HCl pH 7.5, 150 mM NaCl, 2 mM β-mercaptoethanol; 1.0–2.0 mg/mL protein, 100 µL applied; tetramer to monomers

| Protein | stoichiometry N |
| --- | --- |
| B1 | 4 |
| B2 | 4 |
